B1: AADC-IKVAV: aromatic-L-amino-acid decarboxylase (AADC) protein fused with short peptide IKVAV (SEQ ID NO: 23); CDS SEQ ID NO: 21 (protein)
chain: MRGSHHHHHHGMASMTGGQQMGRDLYDDDDKDPMNASEFRRRGKEMVDYMANYMEGIEGRQVYPDVEPGYLRPLIPAAAPQEPDTFEDIINDVEKIIMPGVTHWHSPYFFAYFPTASSYPAMLADMLCGAIGCIGFSWAASPACTELETVMMDWLGKMLELPKAFLNEKAGEGGGVIQGSASEATLVALLAARTKVIHRLQAASPELTQAAIMEKLVAYSSDQAHSSVERAGLIGGVKLKAIPSDGNFAMRASALQEALERDKAAGLIPFFMVATLGTTTCCSFDNLLEVGPICNKEDIWLHVDAAYAGSAFICPEFRHLLNGVEFADSFNFNPHKWLLVNFDCSAMWVKKRTDLTGAFRLDPTYLKHSHQDSGLITDYRHWQIPLGRRFRSLKMWFVFRMYGVKGLQAYIRKHVQLSHEFESLVRQDPRFEICVEVILGLVCFRLKGSNKVNEALLQRINSAKKIHLVPCHLRDKFVLRFAICSRTVESAHVQRAWEHIKELAADVLRAEREGGSGSSGGSGGSGGSGIKVAV
modifications: misc_feature 1..1602 Synthetic: AADC-IKVAV

How the values were obtained:
wild-type C57BL/6J mice = assay: Locomotor behavior test (open field) before and after L-DOPA; format: in vivo, mouse
From the text: RAID neuromodulation provides an approach for precise modulation of brain activity through regionally activated interstitial drug delivery. It should be noted, site-specific, noninvasive methods hold promise for controlled behavioral modulation. As such, to evaluate long-term efficacy of RAID neuromodulation, RAID's ability to sustain behavioral control over time is described herein. In some embodiments, to measure effects of RAID neuromodulation on behavior, targeting dorsal striatum with two FUS sites are be analyzed. In some instances, effects of RAID neuromodulation by targeting dorsal striatum with two FUS sites can be used to increase an amount of on-target delivery of AADC in the CPu region that contains dopamine-responsive cells. […] With this in mind, in certain embodiments, a pair of AADC-IKVAV (SEQ ID NO: 23) and L-DOPA may be used to evaluate whether RAID can induce similar behavioral changes after the prodrug administration. In some embodiments, AADC-IKVAV (SEQ ID NO: 23) is delivered via FUS-BBBO to two sites in the left striatum region of wild type mice. FIG. 11a illustrates embodiments of RAID control of behavior through targeted neuromodulation including an experimental scheme for RAID-induced control of motor behavior by targeted activation of dopamine neurons, in accordance with embodiments described herein. As illustrated, FUS in two sites of the left striatum are used to deliver AADC-IKVAV (SEQ ID NO: 23) (250 mg/kg, i.v. injection) or PBS buffer control. After 2 days, open field test (OFT) was performed twice before and after a single injection of the prodrug L-DOPA (2 mg/kg, i.p.), allowing 200 minutes between each test. The locomotor activity was recorded for 15 min after a habituation period of 5 min in each test. After the testing, mice were perfused 2 h after L-DOPA administration for histologic examination of AADC-IKVAV (SEQ ID NO: 23) retention and neuron activation (c-Fos+) to confirm localize neuromodulation. As schematically depicted in FIG. 11a, the AADC protein fused with a short peptide IKVAV (SEQ ID NO: 23) (e.g., AADC-IKVAV (SEQ ID NO: 23)) to two sites in the left striatum of wild-type mice using FUS-BBBO. After 46 hours, the mice underwent an open field (OF) test to assess baseline locomotor activity over a 20-minute period. The mice were then returned to their home cages and, 100 minutes later, received an intraperitoneal injection of L-DOPA (2 mg/kg) before undergoing another OF test.
Locomotor behavior test—Two groups of mice underwent FUS-BBBO targeting two sites at left striatum immediately after intravenous injection of recombinant protein AADC-IKVAV (SEQ ID NO: 23) (n=14 mice for FUS+AADC-IKVAV group, 20 mg/mL, 250 mg/kg) or equivalent volume of PBS buffer (n=11 mice for FUS alone group). Another group without FUS-BBBO procedure served as wild type control (n=12 mice for WT group). After 46 h, the first session of behavioral test was performed in a custom-made non-transparent open field box (30.5 cm×30.5 cm) as a baseline. Each mouse was individually placed into the apparatus center with a light intensity and background noise at ˜320 lux and 46 dB (400 Hz peak), respectively. After a habituation period of 5 min, the locomotor activity of a freely-moving mouse was recorded for 15 min by a video tracking system (Stoelting Co.) consisting of an overhead camera connected to a computer with Any-Maze software. Behavioral measures include total distance traveled, average and maximum speed, freezing time and episodes, mobile/immobile time and episodes, clockwise and counterclockwise rotations and head turn angles. The mouse was returned to the home cage immediately after testing. After 90 min, the mice were intraperitoneally injected with carbidopa (25 mg/kg) and 10 min later L-DOPA (2 mg/kg) as described above. A second session of open field test 100 min after L-DOPA injection.

brain tissue = assay: Safety analysis, hematoxylin staining of brain sections; format: in vivo, mouse; conditions: RAID approach, FUS+AADC-IKVAV+L-DOPA, behavior study
Protocol: Additionally, the brain sections stained for GFAP were imaged using a 4× objective in DAPI (nuclei) and far-red (GFAP) channels. Three square areas were then selected in both the left and right striatum respectively, each with 3×3 binning, for imaging with a 40× objective to quantify GFAP+ cells. Safety analysis—To investigate potential lesions resulting from the use of FUS-BBBO in the RAID protocol, hematoxylin staining was performed (n=11 mice for FUS alone+L-DOPA group and n=14 mice for FUS+AADC-IKVAV (SEQ ID NO: 23)+L-DOPA group) on the adjacent sections of each representative section used for c-Fos staining, which was associated with behavior analysis as shown in FIG. 11. Hematoxylin staining was conducted according to the following steps: […] (5) This was followed by a 3-minute wash in H2O; (6) A 20-second soak in Bluing Reagent (H&E Staining Kit, Abcam ab245880) was carried out; (7) Another 3-minute wash in H2O followed; […]

[1] = FUS+AADC-IKVAV alone, 46 h, vs WT and FUS alone

Row | Molecule | decrease of clockwise (contralateral) rotation after L-DOPA (wild-type C57BL/6J mice; FUS alone group, L-DOPA 2 mg/kg i.p.) [%] | change in episodes of mobility after L-DOPA (wild-type C57BL/6J mice; control groups, FUS alone or wild type, L-DOPA 2 mg/kg i.p.) | reduction of counter-clockwise (ipsilateral) rotations after L-DOPA (wild-type C57BL/6J mice; control mice with FUS alone or no treatment, L-DOPA 2 mg/kg i.p.) | decrease of clockwise (contralateral) rotation after L-DOPA (wild-type C57BL/6J mice; untreated wild-type group, L-DOPA 2 mg/kg i.p.) [%] | counter-clockwise rotations before L-DOPA administration (wild-type C57BL/6J mice; [1]) | number of mobile episodes before L-DOPA administration (wild-type C57BL/6J mice; [1]) | clockwise (contralateral) rotation after L-DOPA (wild-type C57BL/6J mice; RAID treatment: FUS + AADC-IKVAV, L-DOPA 2 mg/kg i.p.) | decrease in mobile episodes after L-DOPA (wild-type C57BL/6J mice; RAID: FUS two sites left striatum + AADC-IKVAV 250 mg/kg i.v., 2 days, L-DOPA 2 mg/kg i.p.) [%] | reduction of counter-clockwise (ipsilateral) rotations after L-DOPA (wild-type C57BL/6J mice; full RAID treatment: FUS + AADC-IKVAV 250 mg/kg i.v., L-DOPA 2 mg/kg i.p.) [%] | tissue damage or bleeding by hematoxylin staining (brain tissue)
1 | N[C@@H](Cc1ccc(O)c(O)c1)C(=O)O [L-DOPA, reference compound] | 44±13 | no significant change | not in the control mice | 52±8 | – | – | – | – | – | –
2 | B1 | – | – | – | – | no effect | no effect | prevented that decrease | 38±8 | 63±10 | didn't cause observable tissue damage or bleeding

Source: patent US20250195629A1, “SITE-SPECIFIC BRAIN THERAPEUTICS” (William Marsh Rice University, priority 2023, published 2025)
